Data taken from US20040146949A1, “Methods and compounds for disruption of CD40R/CD40L signaling in the treatment of alzheimer's disease” (priority 2002, published 2004).

B1: CD40L: CD40L protein (CD40 ligation) added to N2a cells at 2 μg/mL (protein, UniProt P29965 113-261, looked up)
CD40 ligand, soluble form: MQKGDQNPQIAAHVISEASSKTTSVLQWAEKGYYTMSNNLVTLENGKQLTVKRQGLYYIYAQVTFCSNREASSQAPFIASLCLKSPGRFERILLRAANTHSSAKPCGQQSIHLGGVFELQPGASVFVNVTDPSQVSHGTGFTSFGLLKL
B2: Fas ligand: other TNF ligand superfamily member used as ligand control (protein, UniProt P48023 130-281, looked up)
Tumor necrosis factor ligand …: QIGHPSPPPEKKELRKVAHLTGKSNSRSMPLEWEDTYGIVLLSGVKYKKGGLVINETGLYFVYSKVYFRGQSCNNLPLSHKVYMRNSKYPQDLVMMEGKMMSYCTTGQMWARSSYLGAVFNLTSADHLYVNVSELSLVNFEESQTFFGLYKL

Assays:
Type in all cases: cell-based
[1] = tested on: N2a cells overexpressing human wild-type APP-695; assay: secreted Aβ ELISA in conditioned media of N2a cells over-expressing APP-695; settings: for alterations in secretion of Aβ species: ligand controls for specificity, data not shown
Protocol: (§1) FIGS. 9a-f: CD40L modulates APP processing in vivo and in vitro. Fig. a: Brain homogenates were prepared from 12-month-old TgAPPsw/CD40L-deficient, control IgG-treated PSAPP, and anti-CD40L antibody-treated PSAPP animals. Representative lanes are shown from each mouse group. […] Fig. d: Cell lysates were prepared from N2a cells overexpressing human wild-type APP-695 and treated with 2 μg/mL of heat-inactivated CD40L (control) or CD40L protein (CD40 ligation) for 24 hours. […] Fig. f: A-β1-40 and A-β1-42 peptides were analyzed in conditioned media from human wild-type APP-695 overexpressing N2a cells by ELISA (n=3 for each condition). Data are represented as percentage of Aβ peptide secreted 24 hours after CD40 ligation relative to heat-inactivated CD40L treatment. […] Similar results were obtained with antibody 6687 or Chemicon polyclonal APP C-terminal antibody (data not shown).
(§2) We also employed an N2a cell line that stably over-expresses the human wild-type APP-695 transgene (Thinakaran, G., et al., “Metabolism of the Swedish’ amyloid precursor protein variant in neuro2a (N2a) cells, Evidence that cleavage at the ‘beta-secretase’ site occurs in the golgi apparatus,” J. Biol. Chem. 271, 9390-9397 (1996)). […] This effect could be alleviated by co-treatment with anti-CD40L antibody, as we detected anti-CD40L antibody in brains of treated PSAPP mice. To determine whether an incrreased ratio of β-CTF to α-CTF after CD40L treatment might be associated with secretion of Aβ, we measured the latter in conditioned transfected N2a cell media by ELISA. […] To confirm the specificity of this effect, we treated these cells with other TNF ligand superfamily members TNF-α or Fas ligand the additional control ligands transforming growth factor-β1 or neurotrophin.
ELISA analysis (FIGS. 8-9). Mouse brains (Control, Tg APPsw, CD40L def., and Tg APPsw/CD40L def.) were isolated under sterile conditions on ice and placed in ice-cold lysis buffer (containing 20 mM Tris, pH 7.5, 150 mM NaCl, 1 mM EDTA, 1 mM EGTA, 1% v/v Triton X-100, 2.5 mM sodium pyrophosphate, 1 mM β-glycerolphosphate, 1 mM Na3VO4, 1 µg/mL leupeptin, and 1 mM PMSF). Brains were then sonicated on ice for approximately 3 minutes, let stand for 15 minutes at 4° C., and centrifuged at 15,000 rpm for 15 minutes. Total Aβ species were detected by acid extraction of brain homogenates in 5 M guanidine buffer (Johnson-Wood, K. et al., “Amyloid precursor protein processing and A beta42 deposition in a transgenic mouse model of Alzheimer disease,” Proc. Natl. Acad. Sci USA 94, 1550-1555 (1997)), followed by a 1:10 dilution in lysis buffer. Aβ1-40 and Aβ1-42 and total Aβ (estimated by summing Aβ1-40 and Aβ1-42 values) were quantified in these samples using the Aβ1-40 and Aβ1-42 enzyme-linked immunosorbent assay (ELISA) kits (BioSource, Camarillo, Calif., USA) in accordance with the manufacurer's instruction, except that standards were diluted such that the final concentration included 0.5 M guanidine buffer. Total protein was quantified in brain homogenates using the Bio-Rad protein assay (Bio-Rad, Richmond, Calif., USA); thus, ELISA values were reported as ng of Aβ1-x/wet g of brain. For in vitro analysis of Aβ levels, conditioned media from human APP-over-expressing N2a cells were collected and analyzed at a 1:1 dilution using the method described above, and values were rreported as percentage of Aβ1-x secreted relative to control. […]

[2] = tested on: N2a cells overexpressing human wild-type APP-695; assay: APP CTFs by Western blot in N2a cells over-expressing APP-695; settings: for alterations in APP CTFs: ligand controls for specificity, data not shown
Protocol: as §1, §2
Western blot (FIGS. 8-9). Mouse brains or cultured cells were lysed in ice-cold lysis buffer as described above, and an aliquot corresponding to 50 μg of total protein was electrophoretically separated using 16.5% Tris-tricine gels (Bio-Rad). Electrophoresed proteins were then transferred to PVDF membranes (Bio-Rad), washed in dH20, and blocked for 1 hour at ambient temperature in Tris-buffered saline (TBS) containing 5% (w/v) of non-fat dry milk. After blocking membranes were hybridized for 1 hour at ambient temperature with various antibodies against the C-terminus of APP or the N-terminus of Aβ. […] Densitometric analysis was performed using the Fluor-S Multilmager™ with Quantity One™ software (Bio-Rad). […] Further β- and γ-secretase activities were quantified in Tg APPsw and Tg APPsw/CD40L def. mice using available kits based on secretase-specific peptides conjugated to fluorgenic reporter molecules (R&D Systems, Minneapolis, Minn., USA). […]

[3] = tested on: N2a cell line that stably overexpresses the human wild-type APP-751 transgene; assay: secreted Aβ in conditioned media of N2a cells overexpressing APP-751; settings: CD40L treatment over time
Text: We have recently identified CD40 on neurons and neuron-like cells (including the N2a neuroblastoma cell line), and have shown that neuronal CD40 is functional, being intimately involved in neuronal development, survival, and maturation (Tan et al., “CD40 is expressed and functional on neuronal cells,” EMBO J. (2002) 21:643-52). Given our in vivo findings, we wished to determine whether CD40L could directly act on neurons to modulate APP processing. […] To confirm whether this reduction in α-CTF might be associated with amyloidogenic processing of APP, we measured secreted Aβ in conditioned media. […]
ELISA analysis. […] Total Aβ species were detected by acid extraction of brain homogenates in 5 M guanidine buffer (Johnson-Wood et al., “Amyloid precursor protein processing and A beta42 deposition in a transgenic mouse model of Alzheimer disease,” Proc. Natl. Acad. Sci. USA (1997) 94:1550-55), followed by a 1:10 dilution in lysis buffer. Aβ1-40, Aβ1-42, and total Aβ (estimated by summing Aβ1-40 and Aβ1-42 values) were quantified in these samples using the Aβ1-40 and Aβ1-42 enzyme-linked immunosorbent assay (ELISA) kits (QCB) in accordance with the manufacturer's instruction, except that standards were diluted such that the final concentration included 0.5 M guanidine buffer. […]

[4] = tested on: N2a cell line that stably overexpresses the human wild-type APP-751 transgene; assay: α-CTF by Western blot in N2a cells overexpressing APP-751; settings: CD40L treatment over time
Text: We have recently identified CD40 on neurons and neuron-like cells (including the N2a neuroblastoma cell line), and have shown that neuronal CD40 is functional, being intimately involved in neuronal development, survival, and maturation (Tan et al., “CD40 is expressed and functional on neuronal cells,” EMBO J. (2002) 21:643-52). Given our in vivo findings, we wished to determine whether CD40L could directly act on neurons to modulate APP processing. An N2a cell line was established that stably overexpresses (by ˜3 fold) the human wild-type APP-751 transgene (Xia et al., “Enhanced production and oligomerizatio of the 42-residue amyloid beta-protein by Chinese hamster ovary cells stably expressing mutant presenilins,” J. Biol. Chem. (1997) 272:7977-82). […] To confirm whether this reduction in α-CTF might be associated with amyloidogenic processing of APP, we measured secreted Aβ in conditioned media. […] Thus CD40L is able to directly promote amyloidogenic APP processing in neurons or neuron-like cells. […] As the vast majority of cases of AD are associated with accumulation of Aβ from a normal APP sequence, the observation that the processing of normal APP can be pushed towards amyloidogenicity by CD40L is of interest. […]
Western blot. […] Densitometric analysis was perfromed using the Fluor-S Multilmager™ with Quantity One™ software (Bio-Rad). […]

[5] = 24 hour treatment, 2 μg/mL, relative to heat-inactivated CD40L

Row | Molecule | alterations in secretion of Aβ species [1] | alterations in APP CTFs [2] | increase in secreted Aβ1-40 levels [1, 5] [%] | increase in secreted Aβ1-42 levels [1, 5] [%] | secreted Aβ1-40 levels in conditioned media [3] | secreted Aβ1-42 levels in conditioned media [3] | α-CTF by Western blot [4] | ratio of APP β-CTF to α-CTF ([2]; 2 μg/mL, serum-free conditions, 24 hours, versus heat-inactivated CD40L)
1 | TNF-α [reference compound] | did not observe alterations | did not observe alterations | – | – | – | – | – | –
2 | transforming growth factor-β1: additional control ligand [reference compound] | did not observe alterations | did not observe alterations | – | – | – | – | – | –
3 | B1 | – | – | ~85 | ~50 | time-dependent increase | time-dependent increase | time-dependent decrease | increased ratio
4 | B2 | did not observe alterations | did not observe alterations | – | – | – | – | – | –
